In FireProtDB (doi:10.1002/prot.340220405):

B1: Chemotaxis protein CheY, P0AE67 (parent)
chain: MADKELKFLVVDDFSTMRRIVRNLLKELGFNNVEEAEDGVDALNKLQAGGYGFVISDWNMPNMDGLELLKTIRADGAMSALPVLMVTAEAKKENIIAAAQAGASGYVVKPFTAATLEEKLNKIFEKLGM

Variants of: B1
Conditions: Escherichia coli (strain K12); pH 8; 25 °C; Urea; CD; Na-PIPES 50 mM; reversible: yes; structure 1CEY; whole UniProt chain shown

MADKELKFLVVDDNSTMRRIVRNLLKELGFNNVEEAEDGVDALNKLQAGGYGFVISDWNMPNMAGLELLKTIRADGAMSALPVLMVTAEAKKENIIAAAQAGASGYVVKPFTAATLEEKLNKIFEKLGM [D64A F14N]
ddG of mutation (higher = less stable): -1.7 kcal/mol | denaturant m value: 1.69 kcal/mol/M | denaturant midpoint (higher = more stable): 4.32 M | unfolding free energy: 7.3 kcal/mol

MADKELKFLVVDDNSTMRRIVRNLLKELGFNNVEEAEDGVDALNKLQAGGYGFVISDWNMPNMDGLELLKTIRADGAMSALPVLMVTAEAKKENIIAAAQAGGSGYVVKPFTAATLEEKLNKIFEKLGM [A103G F14N]
ddG of mutation (higher = less stable): -1.2 kcal/mol | denaturant m value: 1.75 kcal/mol/M | denaturant midpoint (higher = more stable): 3.89 M | unfolding free energy: 6.8 kcal/mol

MADKELKFLVVDDNSTMRRIVRNLLKELGFNNVEEAEDGVDALNKLQAGGYGFVISDWNMPNMDGLELLKTIRADGAMSALPVLMVTAEAKKENIIAGAQAGASGYVVKPFTAATLEEKLNKIFEKLGM [A98G F14N]
ddG of mutation (higher = less stable): -1.6 kcal/mol | denaturant m value: 1.76 kcal/mol/M | denaturant midpoint (higher = more stable): 4.09 M | unfolding free energy: 7.2 kcal/mol

MADKELKFLVVDDFSTMRRIVRNLLKELGFNNVEEAEDGVDALNKLQAGGYGFVISDWNMPNMDGLELLKTIRGDGAMSALPVLMVTAEAKKENIIAAAQAGASGYVVKPFTAATLEEKLNKIFEKLGM [A74G]
ddG of mutation (higher = less stable): 0.3 kcal/mol | denaturant m value: 1.6 kcal/mol/M | denaturant midpoint (higher = more stable): 3.32 M | unfolding free energy: 5.3 kcal/mol

MADKELKFLVVDDNSTMRRIVRNLLKELGFNNVEEAEDGVDGLNKLQAGGYGFVISDWNMPNMDGLELLKTIRADGAMSALPVLMVTAEAKKENIIAAAQAGASGYVVKPFTAATLEEKLNKIFEKLGM [A42G F14N]
ddG of mutation (higher = less stable): -0.6 kcal/mol | denaturant m value: 1.73 kcal/mol/M | denaturant midpoint (higher = more stable): 3.58 M | unfolding free energy: 6.2 kcal/mol

MADKELKFLVVDDNSTMRRIVRNLLKELGFNNVEEAEDGVDALNKLQAGGYGFVISDWNMPNMDGLELLKTIRADGAMSALPVLMVTAEAKKENIIAAAQAGASGYVVKPFGAATLEEKLNKIFEKLGM [T112G F14N]
ddG of mutation (higher = less stable): -1.9 kcal/mol | denaturant m value: 1.68 kcal/mol/M | denaturant midpoint (higher = more stable): 4.46 M | unfolding free energy: 7.5 kcal/mol

MADKELKFLVVDDNSTMRRIVRNLLKELGFNNVEEAEDGVDALNKLQAGGYGFVISDWNMPNMDGLELLKTIRADGAMSALPVLMVTAEAAKENIIAAAQAGASGYVVKPFTAATLEEKLNKIFEKLGM [K91A F14N]
ddG of mutation (higher = less stable): -3.3 kcal/mol | denaturant m value: 1.86 kcal/mol/M | denaturant midpoint (higher = more stable): 4.8 M | unfolding free energy: 8.9 kcal/mol

MADKELKFLVVDDFSTMRRIVRNLLKELGFNNVEEAEDGVDALNKLQAGGYGFVISDWNMPNMDGLELLKTIRADGGMSALPVLMVTAEAKKENIIAAAQAGASGYVVKPFTAATLEEKLNKIFEKLGM [A77G]
ddG of mutation (higher = less stable): 0.3 kcal/mol | denaturant m value: 1.56 kcal/mol/M | denaturant midpoint (higher = more stable): 3.32 M | unfolding free energy: 5.3 kcal/mol

MADKELKFLVVDDFSTMRRIVRNLLKELGFNNVEEAEDGVDALNKLQAGGYGFVISDWNMPNMDGLELLKTIRADGAMSALPVLMVTGEAKKENIIAAAQAGASGYVVKPFTAATLEEKLNKIFEKLGM [A88G]
ddG of mutation (higher = less stable): -0.1 kcal/mol | denaturant m value: 1.64 kcal/mol/M | denaturant midpoint (higher = more stable): 3.48 M | unfolding free energy: 5.7 kcal/mol

MADKELKFLVVDDNSTMRRIVRNLLKELGFNNVEEAEDGVDALNKLQAGGYGFVISDWNMPNMDGLELLKTIRADGAMSALPVLMVTAEAKKENIIAAAQAGASGYVVKPFTAATLEEKLNKIFEKLGM [F14N]
ddG of mutation (higher = less stable): -2.9 kcal/mol | denaturant m value: 1.8 kcal/mol/M | denaturant midpoint (higher = more stable): 4.72 M | unfolding free energy: 8.5 kcal/mol

MADKELKFLVVDDNSTMRRIVRNLLKELGFNNVEEGEDGVDALNKLQAGGYGFVISDWNMPNMDGLELLKTIRADGAMSALPVLMVTAEAKKENIIAAAQAGASGYVVKPFTAATLEEKLNKIFEKLGM [A36G F14N]
ddG of mutation (higher = less stable): 0.2 kcal/mol | denaturant m value: 1.6 kcal/mol/M | denaturant midpoint (higher = more stable): 3.41 M | unfolding free energy: 5.4 kcal/mol

MADKELKFLVVDDNSTMRRIVRNLLKELGFNNVEEAEDGVDALNKLQAGGYGFVISDWNMPNMGGLELLKTIRADGAMSALPVLMVTAEAKKENIIAAAQAGASGYVVKPFTAATLEEKLNKIFEKLGM [D64G F14N]
ddG of mutation (higher = less stable): -2.6 kcal/mol | denaturant m value: 1.72 kcal/mol/M | denaturant midpoint (higher = more stable): 4.77 M | unfolding free energy: 8.2 kcal/mol

MADKELKFLVVDDNSTMRRIVRNLLKELGFNNVEEAEGGVDALNKLQAGGYGFVISDWNMPNMDGLELLKTIRADGAMSALPVLMVTAEAKKENIIAAAQAGASGYVVKPFTAATLEEKLNKIFEKLGM [D38G F14N]
ddG of mutation (higher = less stable): -1.9 kcal/mol | denaturant m value: 1.81 kcal/mol/M | denaturant midpoint (higher = more stable): 4.14 M | unfolding free energy: 7.5 kcal/mol

MADKELKFLVVDDFSTMRRIVRNLLKELGFNNVEEAEDGVDALNKLQAGGYGFVISDWNMPNMDGLELLKTIRADGAMSALPVLMVTAEAKKENIIAAAQAGASGYVVKPFTAGTLEEKLNKIFEKLGM [A114G]
ddG of mutation (higher = less stable): 0.5 kcal/mol | denaturant m value: 1.6 kcal/mol/M | denaturant midpoint (higher = more stable): 3.2 M | unfolding free energy: 5.1 kcal/mol

MADKELKFLVVDDNSTMRRIVRNLLKELGFNNVEEAEAGVDALNKLQAGGYGFVISDWNMPNMDGLELLKTIRADGAMSALPVLMVTAEAKKENIIAAAQAGASGYVVKPFTAATLEEKLNKIFEKLGM [D38A F14N]
ddG of mutation (higher = less stable): -1 kcal/mol | denaturant m value: 1.87 kcal/mol/M | denaturant midpoint (higher = more stable): 3.58 M | unfolding free energy: 6.6 kcal/mol

MADKELKFLVVDDNSTMRRIVRNLLKELGFNNVEEAEDGVDALNKLQAGGYGFVISDWNMPNMDGLELLKTIRADGAMSALPVLMVTAEAKKENIIGAAQAGASGYVVKPFTAATLEEKLNKIFEKLGM [A97G F14N]
ddG of mutation (higher = less stable): -1.5 kcal/mol | denaturant m value: 1.77 kcal/mol/M | denaturant midpoint (higher = more stable): 4 M | unfolding free energy: 7.1 kcal/mol

MADKELKFLVVDDNSTMRRIVRNLLKELGFNNVEEAEDGVDALNKLQAGGYGFVISDWNMPNMDGLELLKTIRADGAMSALPVLMVTAEAKKENIIAAAQAGASGYVVKPFAAATLEEKLNKIFEKLGM [T112A F14N]
ddG of mutation (higher = less stable): -1.4 kcal/mol | denaturant m value: 1.68 kcal/mol/M | denaturant midpoint (higher = more stable): 4.12 M | unfolding free energy: 7 kcal/mol

MADKELKFLVVDDNSTMRRIVRNLLKELGFNNVEEAEDGVDALNKLQAGGYGFVISDWNMPNMDGLELLKTIRADAAMSALPVLMVTAEAKKENIIAAAQAGASGYVVKPFTAATLEEKLNKIFEKLGM [G76A F14N]
ddG of mutation (higher = less stable): -3.4 kcal/mol | denaturant m value: 1.77 kcal/mol/M | denaturant midpoint (higher = more stable): 5.08 M | unfolding free energy: 9 kcal/mol

MADKELKFLVVDDFSTMRRIVRNLLKELGFNNVEEAEDGVDALNKLQAGGYGFVISDWNMPNMDGLELLKTIRADGAMSALPVLMVTAEAKKENIIAAGQAGASGYVVKPFTAATLEEKLNKIFEKLGM [A99G]
ddG of mutation (higher = less stable): 0.5 kcal/mol | denaturant m value: 1.58 kcal/mol/M | denaturant midpoint (higher = more stable): 3.23 M | unfolding free energy: 5.1 kcal/mol

MADKELKFLVVDDFSTMRRIVRNLLKELGFNNVEEAEDGVDALNKLQAGGYGFVISDWNMPNMDGLELLKTIRADGAMSGLPVLMVTAEAKKENIIAAAQAGASGYVVKPFTAATLEEKLNKIFEKLGM [A80G]
ddG of mutation (higher = less stable): -0.6 kcal/mol | denaturant m value: 1.68 kcal/mol/M | denaturant midpoint (higher = more stable): 3.65 M | unfolding free energy: 6.2 kcal/mol
